Laboratory results taken from the nanobody polyreactivity screen of Harvey et al. (2022).

Test: yeast display, Sf9 membrane polyspecificity reagent, FACS + sequencing; frameworks hold sequencing errors
How it was run: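 Nanobodies from a synthetic yeast display library (Saccharomyces cerevisiae BJ5465), induced 36–48 hours with galactose, were stained 1 hour at 4 °C with 10% biotinylated, detergent-solubilized Sf9 membrane reagent, enriched on streptavidin microbeads, then FACS-sorted. Anti-HA (expression) and streptavidin (reagent binding) fluorescence set low and high (top ~1%) gates. Polyreactivity labels come from the gate of origin. Genes were colony-PCR amplified, MiSeq 2 × 250 sequenced and filtered by CDR length.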

Row | Sequence | polyreactivity (PSR sort gate)
1 | QVQLVESGGGLVQAGGSLRLSCAASGSTFEGNAMGWYRQAPGKERELVAAINSVAITNYADSVKGRFTISRDNAKNTVYLQMNSLKPEDTAVYYCNAQTNRPWGWPIGYDYWGQGTQVTVSS | low polyreactivity
2 | QVQLVESGGGLVQAGGSLRLSCAASGRIFSFNAMGWYRQAPGKERELVASGGSTYADSVKGRFTISRDNAKNTVYLQMNSLKPEETAVYYCAADPFYYFPSPFDYWGQGTQVTVSS | low polyreactivity
3 | QVQLVESVGGLVQAGGSLRLSCAASGRTFTGNAMGWYRQAPGKERELVAAISQRGGRTNYADSVKGRFTISRDNAKNTVYLQMNSLKPEDTAVYYCAADQSYPKRLPSFEYWGQGTQVTVSS | low polyreactivity
4 | QVQLVESVGGLVQAGGSLSLSCAASGRIFVWYTMGWYRQAPGKEREFVASINGGGNTNYADSVKGRFTISRDNAKNTVYLQMNSLKPEDTADYYCAREYFGEMDYWGHGTQVTVSS | low polyreactivity
5 | QVQLEESGGGLVQAGGSLRLSCAASGRIFDDNAMGWYRPAPGKERELVAAISSSGGSTYYADSVKGRFTISRDNAKNTVYLQMNSLKPEDTAVYYCNAGRYIRAFWYAHGYDYWGQGTQVTVSS | high polyreactivity
6 | QVQLVESRGGLVQAGGSLRLSCAASGSIFRSYAMGWYRQAPGKERELVAAIRGSDGNTYYADSVKGRFTISRDNPKNTVYLQMNSLKPEDTAVYYCAADGCLVDDSATRLYYWGQGTQVTVSS | high polyreactivity
7 | QVQLVESGGGLVQAGGSLRLSCAASGFTFPRNAMGWYRQAPGKERELVAAISRGGGGTYYADSVKGRFTISRDNAKNTVYLQMNSLKPEDTAVYYCNARSVVREFNYWGQGTQVTVSS | high polyreactivity
8 | QVQLVESGGGLVQAGASLRLSCAASGFTFVHYALGWYRQAPGKERELVAAITWNGGRTYYADSVQGRFTISRDNAKNTVYFQMNSLKPEDTAVYYCNAVRITYGRYDLDYWGQGTQVTVSS | high polyreactivity
9 | HVQLVESGGGLVQAGGSLRLSCAASGRIFDWNAMGWYRPAPGKEWELVAAISSRSGGTYYADSVKGRFTISRDNAKNTVYFQMNSLKPEDTAVYYCAADYYWYGRFEYGYWGQGTQVTVSS | low polyreactivity
10 | QVQLVESGGGLVQAGGSLRLSCAASGRTFKYYAMGWYRQAPGKERELVATINYSGGGTNYADSVKGRYTISRDNATNTVSLQMNSLKPDDTAVYYCAARWLWRIPYDYWGEGTQVTVSS | high polyreactivity
11 | QVQLVESGGGLVQAGGSLRLSCAASGLTFIRYAMGWYRQAPGKQRELVAAISTSGGRTYYADSVKGRFTISRDNAKNNVYLQMNILTPEDTAVYYCNAYWRQGYYPEYYYWGQGTQVTVSS | high polyreactivity
12 | QVQLVESGGGLVQAGGSLRLSCAASGIIFTYAMGWYRQAPGKERELVAAIDWRGGRTYYADSVKGRFTISRDNAKNNVYLQMNSLKPEDTAVFFCAARLPGGTYYWGQGTQVTVSS | high polyreactivity
13 | QVQLVESGGGLVLAGGSLRLSCAASGRIFIGNAMGWYRQAPGKERELVAAISKRGGSTYYADSVKGRFTISRDNAKNTVYLQMISLKPEDTAVYYCNKEPLYREFDYWGQGTQVTVSS | low polyreactivity
14 | QVQLQESGGGLVQAGGTLRLSCAASGSFSADEDMGWYRQAQGKESEFVAGISVGGNTNYADSVKGRFTISRENAKNTVYLQINSLKPEDTAVYYCAVLQDVYDALDYWAQGTQVTVSS | high polyreactivity
15 | QDQHVESGGGLVQAGGSLRLSCDASGFIFSYYTMGCYRQAPGKERELVAAIRSSGGSTYADSVKGRFTISRDNAKNTVYLQMTSLKPEDTAVYYCAAVQTWRWVYARDYWGQGTQVTVSS | high polyreactivity
16 | QVQLVESGGGLVQAGGSLRLSCAASGSTFAYNVMGWYRQAPGKERELVAAITISGTSTYYADSVKGRFTISRDNAKNTVYLQMNSLKPEDTAVYYCAARRDRGRVKFYYWGQGTQVTVSS | high polyreactivity
17 | QVQLVESGGGLVQAGGSLRLSCAASGIIFSWYAMGWYRQAPGKEREFVAAISKSGGRTYYADSVKGRFTISRDNAKNTVYLQMNSLKPEDTAVYYFATGISRDYIYIILRYDYWGQGTQVTVSS | low polyreactivity
18 | QVQLVDSGGGLVQAGGSLRLSCAASGRIIWYKGMGWYTQATGKERELVAAINRGTSTYYADSVKGRFTISRDNAKNSVYLQMNSLKPEDTAVYYCAAGVSRWYYYWGQGTQVTVSS | high polyreactivity
19 | QVQLVESGGGLVQAGGSLRLSCAASGLILVPNTMGWYRQAPGKERELVAAISYSGGGTYYADSVKGRFTISRDNAKNTVYLQMNSLKAEDTAVYYCAAYVKRESAPYGYWGHGTQVTVSS | low polyreactivity
20 | QVQLVASGGGLVQAGGSLRLSCAATGSIFYINTMGWYRQAPGKERELVAAINFSDGRTYYADSVMGRFTISRDNAKNTVYLQIHSLKPEDTAVYYCAADVYPSEYDYWGQGTQVTVSS | low polyreactivity
21 | QVQLEETGGGLVQAGASLRISCAASGSIMGQNGMGWYRHAPGKEREFVAGIGYGTTTNYADSVKGRFTTSRDNAKNTVYLQMISMKPEDTAVYYCAAYQGNGYEFYYWGQGTQVTVRS | low polyreactivity
22 | QVHLVESGGGLVQAGGSLRLTCAASGFTFQGYAMGRYRQAPGKERELVAAISIGGVRTYYADSVKGRFTISRDNAKNTVYLQMNSLKPEDTAVYYCAKDGSKLSSYNYWGQGTQVTVSS | high polyreactivity

Row | Sequence | polyreactivity (PSR sort gate)
23 | QVQLVESGGGLVQAGGSLRLSCAASASNFGYNAMGRYRQAPGKERELVAVITDSGGSTYYADSVKGRFTISRDNAKNTVYLQMNSLKPEDTAVYYCAKVYGLVVRGHVILSGFDYWGQGTQVTVSS | low polyreactivity
24 | QDQLVESAGGLVQAGGSLRLSCAASGRTFYFYTMGWYRQAPGKESELVATAITSGGSTNYADSVKGRFTISRDNAKNTVYLQMNSLKPEDTAVYYCAAVPTEFGNRLEYDYWGQGTQVTVSS | low polyreactivity
25 | QVQLVESGGGLVQAGGSLRLSCAASGSTFAVYTMGWYRQAPGKERELSTSYADSVKGRFTISRDNAKNTVYLQMNSLKPEDTAVYYCAADYDAWYDDIEYDYWGQGTQVTVSS | low polyreactivity
26 | QVQLVESGGGLVQAGGSLRLSCAASGRTFRFYTMGWYRQAPGKERELVADISWTSGRTYYADSVKGRFTISRDNAKNTVYLQMNSLKPEDTAVYYCAAYFFSRYSLYDYWGQGTQVTVSS | high polyreactivity
27 | QIQLVESGGGLVQAGGSLRLSCAASGFTFYYYVMGWYRQAPGKERELVAAISSRGGSTYYADSVKGRFTISRDNAKNTVYLQMNSLKPEDTAVYYCAATYWPYRPGYYYWGQGTQVTVSS | high polyreactivity
28 | QDQLVESGGGLVQAGGSLRLTSAASGRIFTIYAMGWYRQPPGKDRELVAAISDRGTRTYYADSVKGRFTISRDIAKNTVYLQMNSLKPEDTAVNYCSTDALYTYGYDYWGQGTQVTVSS | low polyreactivity
29 | QVQLVDSGGGLVQAGGSLRLSCAASGNTFVTYTMGWYRQAPGKERELVADISSGGSTYYADSVKGRFTISRDNAKNTVYLQMYSLKPEDTAVYYCAVLQAVFRSYYIYHRYYWGQGTKVTVSS | high polyreactivity
30 | QVQLVESGGGLVQAGGSLRLSCAASGRTFYWNAMGWYRQAPGKERELVAAISDGGGSTYYADSVKGRFTISRDNAKNTVYLHMNSLKPEDTAVYYCNTPDNQDKPYPGYDYWGQGTQVTVSS | low polyreactivity
31 | QVQLVESGGGLVQAGGSLRLSCAASGIIFTINAMGWYRQAPGKERELVARISRSVGSTTYADSVKGRFTISRDNAKNTVYLQMNSLKPEDTAVYYCAAQPYGYSYHYHRPWGLDYWGQGTQVTVSS | low polyreactivity
32 | QVQLVESGGGLVQAGGSLRLSCAAYGSIYSKYAMGWYRQAPGKEREMDAAISWSDGTTYYADSVKGLFTISRDNAKYTVYLQLNSLKPEDTAVYYCNTPPQWLGRYITITFDYWGQGSQVTVSS | low polyreactivity
33 | QVQLVESGGGLVQAGGSLRLSCAASGGIFDFYAMGWYRQAPGKERELVAAIRYGGSSTYYADSVKGRFTISRDNAKNTVYLLLNSLKPEDTAVYYCAAEPFSWDTWVDYDYWGQGTQVTVSS | low polyreactivity
34 | QVQLVESGGGLVQAGGSLRLSCAASGLIFHFNAMGWYRQAPGKERELVAAITSIGGSTFYADSVKGRFTISRDNAKNTVYLQMNSLKPEDTAVYYCAAAISYFFPDYDYWGQGTQVTVSS | low polyreactivity
35 | QVQLVESGGGLVQAGGSLRLSCAASGIIFAYYAMGWYRQAPGKERELVAAISRSGGITYYADSVKGRFTISRDNAKNTVYLQMNSLKPEDTAAYYCARYSCRPYDYWGQGTQVTVSS | high polyreactivity
36 | QVQLVESGGGLVQAGGSLRLSCAASGLTFGGNAMGWYRQAPGKERELVAAISWSDDTTDYADSVKGRFTISRDNAKNTVYLQMNSLKPEDTAVYYCADRLPFEHVDYWGQGTQVTVSS | low polyreactivity
37 | KVQLVESGGGLVQAGGSLRISCAASGSTLYRYAMGWYRQAPGKERELVAAISSSGGSTYYADSVKGRFTISRDNAKNTVYLQMNSLKPEDTAVYYCARVAPASGVRWYYYWGQGTQVTVSS | high polyreactivity
38 | QVQHEESGGGLVQAGGSLRLSCAASGSIIRYYPMGWYRQATGKQRELVAAISRDDSRTYYADSVRGRFTISLDNAKNTVYLQMNSLKPEDTAVYYCAADSSRYTRYLYYYWGQGTQVTVSS | high polyreactivity
39 | QVQLVESGGGLVQAGGSLRLSCAASGSIFQTYAMGWYRQAPGKERELVAAITSGGGSTYYADSVKGRFTISRDNAKNTVYLQMNSLKPEDTAVYYCNRLYRYLVWPAGEYDYWGQGTQVTVTS | high polyreactivity
40 | QVQLVESGGGLVQARVSLRLSCAASGSIFNGYAMRWYRQAPGKESEFVAAISASGGGTYYADSVKGRFTISRDNAKNTVYLQMNSLKPEDTAVYYCNARYHPYYWGYRYDYWGQGTQVTVSS | low polyreactivity
41 | QVQLEESGGGLVQAGGSLRLSCAASGSILVKYAMGRYRQAPGKERELVASITSTGNTYYADSVKGRFTISRDNAKNTVYLQMNSLKPEDTAVYYCAADAAFTYVYFQSDGYNYWGQGTQVTVSS | low polyreactivity
42 | QVQLVESGVGLVQAGGSLRLSSAASGSTFGYYTMGWYRQAPGKERELVASISWSGASTHYADSVKGRFTISRDNAKNTVYLQMNSLKPDDTEVYYCAADWQQQPGTNSFDYWGQGTQVTVSS | low polyreactivity
43 | QVQLVESGGGLVQAGGSLRLSCAASGRTFYFNAMGWYRQAPGKERELVAGISGDGSTNYADSVKGRFTISRDNAKNTFYLQMNSLKPEDTAVYYCAKTMGSQSYDFDYWGQGTQVTVSS | low polyreactivity
